Data taken from article PMC3295541 (Biochemistry, 2010).

B1: PdxB (4-phospho-D-erythronate dehydrogenase) from E. coli (enzyme, UniProt P05459 1-378, looked up)
chain: MKILVDENMPYARDLFSRLGEVTAVPGRPIPVAQLADADALMVRSVTKVNESLLAGKPIKFVGTATAGTDHVDEAWLKQAGIGFSAAPGCNAIAVVEYVFSSLLMLAERDGFSLYDRTVGIVGVGNVGRRLQARLEALGIKTLLCDPPRADRGDEGDFRSLDELVQRADILTFHTPLFKDGPYKTLHLADEKLIRSLKPGAILINACRGAVVDNTALLTCLNEGQKLSVVLDVWEGEPELNVELLKKVDIGTSHIAGYTLEGKARGTTQVFEAYSKFIGHEQHVALDTLLPAPEFGRITLHGPLDQPTLKRLVHLVYDVRRDDAPLRKVAGIPGEFDKLRKNYLERREWSSLYVICDDASAASLLCKLGFNAVHHPAR

Tests used:
PdxB = PdxB (Escherichia coli, UniProt P05459); assay: coupled assay with SerC and PdxA, NADH formation at […] nm; assay type: biochemical
purified protein [1] = substrate: CC(=O)C(=O)O; assay: purified protein; assay type: biochemical, Escherichia coli; conditions: 4PE 29 μM, TND buffer pH 8.0, room temperature
purified protein [2] = substrate: O=C(O)CC(=O)C(=O)O; assay: purified protein; assay type: biochemical, Escherichia coli; conditions: 4PE 29 μM, TND buffer pH 8.0, room temperature
purified protein [3] = substrate: O=C(O)CCC(=O)C(=O)O; assay: purified protein; assay type: biochemical, Escherichia coli; conditions: 4PE 29 μM, TND buffer pH 8.0, room temperature
purified protein [4] = substrate: O=C(O)[C@H](O)[C@H](O)COP(=O)(O)O; assay: purified protein; assay type: biochemical, Escherichia coli; conditions: αKG 2 mM, TND buffer pH 8.0, room temperature
SEC = biological target: the molecule itself; assay: SEC

IC50 (PdxB) [µM]	Molecule	Km (purified protein [1]) [µM]	kcat (purified protein [1]) [s⁻¹]	kcat/Km (purified protein [1]) [M⁻¹ s⁻¹]	Km (purified protein [2]) [µM]	kcat (purified protein [2]) [s⁻¹]	kcat/Km (purified protein [2]) [M⁻¹ s⁻¹]	Km (purified protein [3]) [µM]	kcat (purified protein [3]) [s⁻¹]	kcat/Km (purified protein [3]) [M⁻¹ s⁻¹]	Km (purified protein [4]) [µM]	stoichiometry N (SEC)
> 2000	O=C(O)CC[C@H](O)C(=O)O [L-2-HGA]	–	–	–	–	–	–	–	–	–	–	–
–	B1	128 ± 20	1.3 ± 0.14	9900 ± 160	86 ± 19	1.1 ± 0.31	13000 ± 2100	93 ± 19	1 ± 0.24	11000 ± 2400	2.9 ± 1.3	2
